Reference: IntAct's records for PubMed 29039417

B1: BBSome complex member BBS1 (Homo sapiens), Q8NFJ9 (parent)
chain: MAAASSSDSDACGAESNEANSKWLDAHYDPMANIHTFSACLALADLHGDGEYKLVVGDLGPGGQQPRLKVLKGPLVMTESPLPALPAAAATFLMEQHEPRTPALALASGPCVYVYKNLRPYFKFSLPQLPPNPLEQDLWNQAKEDRIDPLTLKEMLESIRETAEEPLSIQSLRFLQLELSEMEAFVNQHKSNSIKRQTVITTMTTLKKNLADEDAVSCLVLGTENKELLVLDPEAFTILAKMSLPSVPVFLEVSGQFDVEFRLAAACRNGNIYILRRDSKHPKYCIELSAQPVGLIRVHKVLVVGSTQDSLHGFTHKGKKLWTVQMPAAILTMNLLEQHSRGLQAVMAGLANGEVRIYRDKALLNVIHTPDAVTSLCFGRYGREDNTLIMTTRGGGLIIKILKRTAVFVEGGSEVGPPPAQAMKLNVPRKTRLYVDQTLREREAGTAMHRAFQTDLYLLRLRAARAYLQALESSLSPLSTTAREPLKLHAVVQGLGPTFKLTLHLQNTSTTRPVLGLLVCFLYNEALYSLPRAFFKVPLLVPGLNYPLETFVESLSNKGISDIIKVLVLREGQSAPLLSAHVNMPGSEGLAAA
partner: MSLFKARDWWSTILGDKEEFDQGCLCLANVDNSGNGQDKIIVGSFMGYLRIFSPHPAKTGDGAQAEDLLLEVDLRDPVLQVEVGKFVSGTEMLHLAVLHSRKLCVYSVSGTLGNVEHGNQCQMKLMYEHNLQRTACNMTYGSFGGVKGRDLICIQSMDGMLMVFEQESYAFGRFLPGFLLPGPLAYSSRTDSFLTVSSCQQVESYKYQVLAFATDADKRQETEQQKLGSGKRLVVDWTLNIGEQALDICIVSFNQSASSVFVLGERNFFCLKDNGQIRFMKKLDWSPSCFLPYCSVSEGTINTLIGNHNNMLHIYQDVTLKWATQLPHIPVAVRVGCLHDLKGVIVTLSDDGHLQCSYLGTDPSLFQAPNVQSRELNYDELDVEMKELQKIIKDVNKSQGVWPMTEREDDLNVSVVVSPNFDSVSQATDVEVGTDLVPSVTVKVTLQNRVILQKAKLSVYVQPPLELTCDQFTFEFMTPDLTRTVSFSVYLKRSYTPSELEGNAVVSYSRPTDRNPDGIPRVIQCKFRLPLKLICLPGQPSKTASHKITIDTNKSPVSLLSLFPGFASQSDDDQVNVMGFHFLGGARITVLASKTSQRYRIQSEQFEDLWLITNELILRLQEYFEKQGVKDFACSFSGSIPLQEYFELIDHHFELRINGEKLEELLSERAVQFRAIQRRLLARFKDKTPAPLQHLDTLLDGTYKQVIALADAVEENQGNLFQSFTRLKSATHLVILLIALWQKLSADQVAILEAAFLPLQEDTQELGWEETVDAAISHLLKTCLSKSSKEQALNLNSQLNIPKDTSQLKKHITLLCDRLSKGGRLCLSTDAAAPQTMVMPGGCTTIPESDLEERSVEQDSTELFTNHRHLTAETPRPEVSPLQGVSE

Variants of: B1
Settings: with pthb1_human BBS9, Q3SYG4

| Variant | effect of a mutation on the interaction |
| --- | --- |
| A464K | with no effect |
| A464E | with no effect |
| E472K | with no effect |
| E472A | with no effect |
| S473K | with no effect |
| S473A | with no effect |
| S473E | with no effect |
| S479K | with no effect |
| S479A | with no effect |
| S479E | with no effect |
| L501A | disrupting interaction strength |
| L501E | disrupting interaction strength |
| L501K | disrupting interaction strength |
| S474K | with no effect |
| S474A | with no effect |
| S474E | with no effect |
| L503E | disrupting interaction strength |
| L503A | with no effect |
| L503K | disrupting interaction strength |
| S476K | with no effect |
| S476E | with no effect |
| S476A | with no effect |
| G496K | with no effect |
| G496E | with no effect |
| G496A | with no effect |
| L505E | disrupting interaction strength |

| Variant | effect of a mutation on the interaction |
| --- | --- |
| L505K | disrupting interaction strength |
| L505P | disrupting interaction strength |
| L505A | with no effect |
| K500E | with no effect |
| K500A | with no effect |
| D455K | with no effect |
| L459E | with no effect |
| L459K | with no effect |
| L459S | disrupting interaction strength |
| L459A | with no effect |
| L461A | with no effect |
| L461K | with no effect |
| L461E | with no effect |
| Q469E | with no effect |
| Q469K | with no effect |
| Q469A | with no effect |
| Y467E | with no effect |
| Y467K | with no effect |
| Y467A | with no effect |
| L495E | with no effect |
| L495A | with no effect |
| L495K | with no effect |
| T481K | with no effect |
| T481E | with no effect |
| T481A | with no effect |
| A482K | with no effect |

| Variant | effect of a mutation on the interaction |
| --- | --- |
| A482E | with no effect |
| F499A | with no effect |
| F499K | with no effect |
| F499E | disrupting interaction strength |
| A466E | with no effect |
| A466K | with no effect |
| L456E | with no effect |
| L456A | with no effect |
| L456K | with no effect |
| Q506E | with no effect |
| Q506A | with no effect |
| Q506K | with no effect |
| E484A | with no effect |
| E484K | with no effect |
| N507K | with no effect |
| N507A | with no effect |
| N507E | disrupting interaction strength |
| T508A | with no effect |
| T508E | with no effect |
| T508K | with no effect |
| V492K | with no effect |
| V492A | with no effect |
| V492E | with no effect |
| Q493K | with no effect |
| Q493E | with no effect |
| Q493A | with no effect |

| Variant | effect of a mutation on the interaction |
| --- | --- |
| T502A | with no effect |
| T502E | with no effect |
| T502K | with no effect |
| S509E | with no effect |
| S509L | disrupting interaction strength |
| S509A | with no effect |
| S509K | with no effect |
| Y457E | with no effect |
| Y457K | with no effect |
| Y457A | with no effect |
| A463K | disrupting interaction strength |
| A463E | disrupting interaction strength |
| P477E | with no effect |
| P477A | with no effect |
| P477K | with no effect |
| L458K | with no effect |
| L458E | with no effect |
| L458A | with no effect |
| T498A | with no effect |
| T498K | with no effect |
| T498E | with no effect |
| P513E | with no effect |
| P513K | with no effect |
| P513A | with no effect |
| R462A | with no effect |
| R462E | with no effect |

| Variant | effect of a mutation on the interaction |
| --- | --- |
| R462K | with no effect |
| L475K | with no effect |
| L475E | with no effect |
| L475A | with no effect |
| T510A | with no effect |
| T510E | with no effect |
| T510K | with no effect |
| L478K | with no effect |
| L478E | with no effect |
| L478A | with no effect |
| G516A | disrupting interaction strength |
| G516K | with no effect |
| G516E | with no effect |
| A470E | with no effect |
| A470K | with no effect |
| V514E | with no effect |
| V514A | with no effect |
| V514K | with no effect |
| L468K | with no effect |
| L468E | with no effect |
| L468A | with no effect |
| L471F | disrupting interaction strength |
| L471E | with no effect |
| L471A | with no effect |
| L471K | with no effect |
| R465K | with no effect |

| Variant | effect of a mutation on the interaction |
| --- | --- |
| R465E | with no effect |
| R465A | with no effect |
| P497K | with no effect |
| P497E | with no effect |
| P497A | with no effect |
| G494A | with no effect |
| G494E | with no effect |
| G494K | with no effect |
| K487E | with no effect |
| K487A | with no effect |
| A490K | with no effect |
| A490E | with no effect |
| R483A | with no effect |
| R483E | with no effect |
| R483K | with no effect |
| R460K | with no effect |
| R460E | with no effect |
| R460A | with no effect |
| L488E | with no effect |
| L488K | with no effect |
| L488A | with no effect |
| L515K | with no effect |
| L515E | with no effect |
| L515A | with no effect |
| H489K | with no effect |
| H489A | with no effect |

| Variant | effect of a mutation on the interaction |
| --- | --- |
| H489E | with no effect |
| H504A | with no effect |
| H504K | with no effect |
| H504E | with no effect |
| T480E | with no effect |
| T480K | with no effect |
| T480A | with no effect |
| T511K | with no effect |
| T511A | with no effect |
| T511E | with no effect |
| R512K | with no effect |
| R512E | with no effect |
| R512A | with no effect |
| V491A | with no effect |
| V491E | with no effect |
| V491K | with no effect |
| P485K | with no effect |
| P485A | with no effect |
| P485E | with no effect |
| L486E | disrupting interaction strength |
| L486K | disrupting interaction strength |
| L486A | with no effect |

Variants of: B1
Settings: with pthb1_human BBS9, Q3SYG4
Remark: another data set of the same source

| Variant | effect of a mutation on the interaction |
| --- | --- |
| N507E | with no effect |
